From the supplement of paper PMC9170038

Test system: MS2 coat protein
Assay: apparent KD of MS2 coat protein; designed switch direction (-1 OFF switch, 1 ON switch): -1; higher = weaker reporter binding
How it was run: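 On Illumina chips, designed RNA switches with common flanks were made by stalled E. coli RNA polymerase. Titrations with SNAP-549-labelled MS2 coat protein, doubling from 0.7 or 1.5 nM to 3 µM, were done with no input, with 200 uM small-molecule ligand, or with an oligonucleotide input. Apparent KD is the median per design over clusters, from curve fits of normalised cluster fluorescence.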

[1] = Eterna round: R95, input ligand: FMN 200 uM
[2] = Eterna round: R95, input ligand: microRNA oligo, concentration not stated
[3] = Eterna round: R95, input ligand: none
[4] = input ligand: microRNA oligo, concentration not stated

Sequence | apparent KD of MS2 coat protein [1] [nM] | apparent KD of MS2 coat protein [2] [nM] | apparent KD of MS2 coat protein [3] [nM] | apparent KD of MS2 coat protein (input ligand: FMN 200 uM) [nM] | apparent KD of MS2 coat protein (input ligand: none) [nM] | apparent KD of MS2 coat protein [4] [nM]
CGUAGUCUUCGGACUACGAACAUGAGGAUCACCCAUGUAUAGAGCAGAUCUUCAUGCAAGCUUUUUGCUCGUCUUAU [Sensor v3 - turn-off variant 1 - 48] (puzzle: Sensor v3, turn-off variant 1) | 82 | 10.8 | 86.6 |  |  | 
UUAAUGUCAGGAUAUGCUUAAUAUAUUUUAUUAUAAUAUAUACAUGAGGAUCACCCAUGUAGAAGGGACAUUAU [LRO-Excl2-04-Fireball XL5] (Eterna round: R97, puzzle: Exclusion 2) |  |  |  | 26.4 | 39.1 | 
GUAAUUAAUGUAGGAUAUGCAAGGCGAACCUAAGCAGAAGGACAUGAGGAUCACCCAUGUAAUGCGGUCUGCGUACAGAUCGCU [salish99_ExNG1_r4_007] (Eterna round: R96, puzzle: Exclusion NG 1) |  |  |  | 47.8 | 24.2 | 13.2
UAUAUAUAGUAAGGAUAUGUAUUUAUUUUAUAGACAGAAGGUACUGACAUGAGGAUCACCCAUGUUUUAGUGUGGGCAUGUAGA [JMF's solution 27] (Eterna round: R96, puzzle: Exclusion NG 1) |  |  |  | 122 | 94.4 | 78.5
CUUUUGUGAGGAUAUCAGUAGUAGAACAAUAGUACUACUACUGAGAAGGCACAUGAGGAUCACCCAUGUACCUC [Fiskers Ex 4 Super stable 44 mod 3] (puzzle: Exclusion 4) |  | 18.8 |  |  |  | 
GGAGAGAGGCAGGAUAUGGGAGGGAGGACCGGACCAGAAGGGUUGACAUGAGGAUCACCCAUGUAGAGAUCCUC [AK-MS2ROC-r4-exclusion6-6.8] (Eterna round: R97, puzzle: Exclusion 6) |  |  |  | 563 | 1140 | 
AGUCCGUCAGGAUAUGCAAUUGUGGACAUGAGGAUCACCCAUGUAACGUGGGCAUGGUUUGUAGAAGGGACGUGCA [EX5 #92] (Eterna round: R97, puzzle: Exclusion 5) |  |  |  | 129 | 95.3 | 
GUCAAACAUGAGGAUCACCCAUGUGAGGAUAUUUAGGAUAGGAUAUGACUACUACUCCGAAGAAGGCACUCGGG [Eternabot (L1) Solution 7] (Eterna round: R97, puzzle: Exclusion 1) |  |  |  | 102 | 38.5 | 
GCGAGCUGAGGAUAUACAUGAGGAUCACCCAUGUAUUUUGGAAGACUGCCUCCUGCACGUAGAAGGCGGCUCUU [Eternabot (L2) Solution 35] (Eterna round: R97, puzzle: Exclusion 3) |  |  |  | 24.4 | 24.7 | 
ACAAGCUUAAAAGGUGAUAACAUGAGGAUCACCCAUGUUCGUCUUAUAAAGAUCCUAUGUCGAAAGACAUAGGAUCA [Sensor 3, v1 - 68] (puzzle: Sensor v3, turn-off variant 1) | 18.8 | 39.4 | 20.9 |  |  | 
GUGAAACAUGAGGAUCACCCAUGUGAGGAUAUGUUUUAGUAAUGAUGAAAGUAAAUCUACAGAAGGCACAAUGG [Mat - Mod of JL D70] (puzzle: Exclusion 1) |  | 77.9 |  |  |  | 
CAGUACAGAGGAUAUACAUGAGGAUCACCCAUGUGUUUCAGGUACGAAAGUACCGAAUGUAGAAGGCUGUACUG [jl-ex3-4.25 salish99 mod] (Eterna round: R97, puzzle: Exclusion 3) |  |  |  | 244 | 25.6 | 
GUCGGGCGUGUCAGGAUAUGGUAGAGUGGUCGCGGCCAGAAGGGACAUGAGGAUCACCCAUGUUCCGUGGGCAG [BmEX4 C.11] (Eterna round: R97, puzzle: Brourd's mod of Exclusion 4) |  |  |  | 19 | 19.9 | 
UUUAGUCGUGACAUGGGUGACAUGAGGAUCACCCAUGUCACAAGCUUCUCGCUCGUCUUAUAAUUAACCCAUGUCAC [LRO Sensor-off var1-14 mod of Stov1-13-A1 by Brourd] (Eterna round: R97, puzzle: Sensor, turn-off variant 1) |  |  |  | 18.6 | 19.8 | 
UGUUAGAUGGUAGGAUAUCCAUAUCGAGUGACCCUUUCAUAACAUGAGGAUCACCCAUGUCGGUGGGAGAAGGGCCGUAUGGUG [salish99_ExNG02_R04_031] (Eterna round: R96, puzzle: Exclusion NG 2) |  |  |  | 18 | 22.7 | 15.8
ACAAGAUCGGAAGGAUAUUGUACAUGAGGAUCACCCAUGUAAUAAAUGAGGAUCACGGAUGUAGACAAGAAGGUCCGGAUAAGA [Ostracism 4 - Jieux - Exclusion NG 2] (Eterna round: R96, puzzle: Exclusion NG 2) |  |  |  | 45.6 | 36.2 | 30.8
GCCUCGUCAGGAUAUCUCCACGUGAGCAAGGCUCACGGGCCAGAGAAGGGACUUGAGGAUCACCCAAGUAAAAC [Ritiatso] (Eterna round: R97, puzzle: Exclusion 4) |  |  |  | 428 | 138 | 

Sequence | apparent KD of MS2 coat protein [1] [nM] | apparent KD of MS2 coat protein [2] [nM] | apparent KD of MS2 coat protein [3] [nM] | apparent KD of MS2 coat protein (input ligand: FMN 200 uM) [nM] | apparent KD of MS2 coat protein (input ligand: none) [nM] | apparent KD of MS2 coat protein [4] [nM]
CCGUGCACGCUGCGGUCCUACAUGAGGAUCACCCAUGUGGUCCGGUGGCGUGGGUCGCCGGACUUGGCUCGUCUUGU [salish99_S_TOV1_R5_017] (Eterna round: R97, puzzle: Sensor, turn-off variant 1) |  |  |  | 35.1 | 37.6 | 
GUAGAGUAAGGAUAUGGAGAAUAGGAUAGAAUGGUUAGAAUCUAGAAGGUACAUGAGGAUCACCCAUGUAAUGU [Excluse me!!!! 9 - Jieux - Exclusion 4] (puzzle: Exclusion 4) |  | 21.2 |  |  |  | 
UAAAAGACAGGAUAUACUAACAACGACUUGAGGAUCACCCAAGUGGUAAGAGUCGAUCAUGUAGAAGGGUUAAAAC [Atsoce] (Eterna round: R97, puzzle: Exclusion 5) |  |  |  | 74.3 | 28 | 
GGAAAGGUAGGAUAUACGAAGAAAAAGGGUAGAAUAAUAACACAUGAGGAUCACCCAUGUAGAAGGACCAAAUG [Mat - Exclusion 2 - Mod of my Tesla design - D7] (puzzle: Exclusion 2) | 71.1 | 37.8 | 29 |  |  | 
GACUAGAGAGGAUAUAUUUACAGUGUACCUCGGAUGAUCGCACUUGAGGAUCACCCAAGUAGAAGGCUCGAGGG [EX2 #29] (Eterna round: R97, puzzle: Exclusion 2) |  |  |  | 11 | 15.2 | 
GAAGAGACAGGAUAUACAUGAGGAUCACCCAUGUGAGGAGGAAGAGAGAGGAGAAGGAGUAGAAGGGUCAGAGG [JR_Exclu3_Sub028] (puzzle: Exclusion 3) | 32.1 | 41.2 | 46.5 |  |  | 
UACUUCCGAGGAUAUACAUGAGGAUCACCCAUGUGCUUCAGCAUCUAAUGAUGCAUGGGUAGAAGGCGGUAGUU [LRO-Excl3-20] (puzzle: Exclusion 3) |  | 56 |  |  |  | 
UACAUGAGGAUCACCCAUGUUUUGUCGUGUAUGGUAUUUAUCUAGGAUAUCAUUUGAUUUAGUUAUGAGAAGGAGAAUAUUAAU [JMF's solution 86] (Eterna round: R96, puzzle: Exclusion NG 3) |  |  |  | 33.6 | 29.9 | 17.2
ACAAAGGUAGGAUAUCGGACUAUGGACAUGAGGAUCACCCAUGUGCGUCCAAUGCCCAACCGAGAAGGACCAACAG [Isindiedbe] (puzzle: Exclusion 5) |  | 43.7 |  |  |  | 
AGAGUGCUGCGAGGAUAUACAUGAGGAUCACCCAUGUUUACCUGUGAGGCAAAGCCUCACAGGUUGUAGAAGGCGCAGUACUCA [Mat - Exclusion NG 2 - Mod of JL - D42] (Eterna round: R96, puzzle: Exclusion NG 2) |  |  |  | 9.39 | 19.4 | 10.1
AAAAGAAGUGUUAGGAUAUGUGGAAGCAGAAAGACACAGAAGGAACAUGAGGAUCACCCAUGUGACCAAAGAAC [Maenonis] (puzzle: Brourd's mod of Exclusion 4) | 27.1 | 15.8 | 15.3 |  |  | 
UAAUGUAUAUAGGAUAUCUAGCUGGAAACAGCUAGAGAAGGAUGUACAUGAGGAUCACCCAUGUAAAUCAAUAG [Ex6/9-A2] (Eterna round: R97, puzzle: Exclusion 6) |  |  |  | 48.3 | 21.8 | 
UAGGUACAUGAGGAUCACCCAUGUGAGGAUAUAGAGGAAGAUUGCGAGAGGGAGAGGACUAGAAGGCACAGUGG [JR_Exclu1_Sub035] (puzzle: Exclusion 1) | 37 | 28.1 | 39.9 |  |  | 
CUUAUGUGAGGAUAUCAGUAGUAAUACAAUAGUAUUACUACUGAGAAGGCACAUGAGGAUCACCCAUGUUCUUC [Exclusion 4 - Mod Omei Ex4 344 mod v.2] (puzzle: Exclusion 4) |  | 103 |  |  |  | 
CGUAGCAUUGUGAGGAUAUCUAGAGCUUCGGCUCUAGAGAAGGCACAUGAGGAUCACCCAUGUGAUUAGCUACG [BmEx4/9-C1] (Eterna round: R97, puzzle: Brourd's mod of Exclusion 4) |  |  |  | 1760 | 111 | 
UUAUUACAAGCAAGAUCCCACAUGAGGAUCACCCAUGUGCUCGUCUUAUAAGGUACUGUGACGAAAGUCACGGUACC [Sensor 3, v1 - 100] (Eterna round: R96, puzzle: Sensor v3, turn-off variant 1) |  |  |  | 26.3 | 24.6 | 547
